The target of the series is Gli1 (from hisSUMO-Gli1, Addgene 87225, His-SUMO tag cleaved) (UniProt P08151 234-388). Description: SPR. For orientation: In SPR one partner is held on a chip, and binding of the other changes the refractive index at the surface.
Chain of Gli1 (from hisSUMO-Gli1, Addgene 87225, His-SUMO tag cleaved) (P08151 234-388): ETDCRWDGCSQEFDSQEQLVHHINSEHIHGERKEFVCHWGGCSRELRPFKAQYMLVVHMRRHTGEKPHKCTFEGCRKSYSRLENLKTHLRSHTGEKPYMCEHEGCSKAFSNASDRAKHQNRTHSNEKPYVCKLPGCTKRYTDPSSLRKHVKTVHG

B1: biotinylated GLI1 consensus dsDNA (SPR) (dsDNA)
DNA 1: ACGTGGACCACCCAAGACGAA
DNA 2: TTTCGTCTTGGGTGGTCCACGT
For B1, the binding result is on record as “binds”.

These data come from PMC7873571.
